Laboratory results as given in article PMC4049585, “Identification and Characterization of a Ginsenoside-Transforming β-Glucosidase from Pseudonocardia sp. Gsoil 1536 and Its Application for Enhanced Production of Minor Ginsenoside Rg2(S)” (PLoS ONE, 2014).

How the values were obtained:
[1] = system: T1, O=[N+]([O-])c1ccc(O[C@@H]2O[C@H](CO)[C@@H](O)[C@H](O)[C@H]2O)cc1; assay: purified protein; type: biochemical, Pseudonocardia sp. Gsoil 1536; settings: pNPG 1-20 mM, standard assay 50 mM sodium phosphate pH 7.0, 37°C
T1 construct: 743 residues, 78,975 Da predicted; GST fusion (pGEX 4T-1) from E. coli BL21(DE3), 105 kDa with GST; forward primer encodes IDPVDLTL after GS

[2] = system: T2, CC(C)=CCC[C@](C)(O[C@@H]1O[C@H](CO)[C@@H](O)[C@H](O)[C@H]1O)[C@H]1CC[C@]2(C)[C@@H]1[C@H](O)C[C@@H]1[C@@]3(C)CC[C@H](O)C(C)(C)[C@@H]3[C@@H](O[C@@H]3O[C@H](CO)[C@@H](O)[C@H](O)[C@H]3O[C@@H]3O[C@@H](C)[C@H](O)[C@@H](O)[C@H]3O)C[C@]12C; assay: initial velocity, Re conversion, Cleland kinetics program; type: biochemical, Pseudonocardia sp. Gsoil 1536; settings: Re 0.2-5.0 mM; Re substrate lot purity 87.6%; temperature and buffer of kinetics not given
T2 construct: 743 residues, 78,975 Da predicted; GST fusion (pGEX 4T-1) from E. coli BL21(DE3), 105 kDa with GST; forward primer encodes IDPVDLTL after GS
Text: initial velocity, Re conversion, Cleland kinetics program on BglPC28

**Q.** What does the source list for BglPC28 (Pseudonocardia sp. Gsoil1536)?
**A.** Km [1]: 6.36 ± 1.10 mM; Vmax [1]: 40 µmol/min/mg; kcat [1]: 52.7 ± 3.4 s⁻¹; kcat/Km [1]: 8630 ± 2020 M⁻¹ s⁻¹; Km [2]: 1.42 ± 0.13 mM; Vmax [2]: 5.62 µmol/min/mg; kcat [2]: 7.4 ± 0.28 s⁻¹; kcat/Km [2]: 5280 ± 690 M⁻¹ s⁻¹
